Test results reported in patent US20130029913A1, “ARTIFICIAL PLATELETS” (priority 2005, published 2013).
Values belong to the molecule of their own block, whether it stands above or below them. Primed or numbered codes have the meaning given here. No end group written: not given here. MAL″ = maleimide moiety on the C-terminal lysine; MAL = maleimide moiety

What was measured:
Fibrinogen [1] = target: T1, Fibrinogen (Homo sapiens, UniProt P02679); experiment: Binding of fibrinogen to peptide-linked microspheres in absence and presence of thrombin (flow cytometry)
T1 sequence (P02671 20-644 isoform P02671-2 partner limits assumed, one chain of several): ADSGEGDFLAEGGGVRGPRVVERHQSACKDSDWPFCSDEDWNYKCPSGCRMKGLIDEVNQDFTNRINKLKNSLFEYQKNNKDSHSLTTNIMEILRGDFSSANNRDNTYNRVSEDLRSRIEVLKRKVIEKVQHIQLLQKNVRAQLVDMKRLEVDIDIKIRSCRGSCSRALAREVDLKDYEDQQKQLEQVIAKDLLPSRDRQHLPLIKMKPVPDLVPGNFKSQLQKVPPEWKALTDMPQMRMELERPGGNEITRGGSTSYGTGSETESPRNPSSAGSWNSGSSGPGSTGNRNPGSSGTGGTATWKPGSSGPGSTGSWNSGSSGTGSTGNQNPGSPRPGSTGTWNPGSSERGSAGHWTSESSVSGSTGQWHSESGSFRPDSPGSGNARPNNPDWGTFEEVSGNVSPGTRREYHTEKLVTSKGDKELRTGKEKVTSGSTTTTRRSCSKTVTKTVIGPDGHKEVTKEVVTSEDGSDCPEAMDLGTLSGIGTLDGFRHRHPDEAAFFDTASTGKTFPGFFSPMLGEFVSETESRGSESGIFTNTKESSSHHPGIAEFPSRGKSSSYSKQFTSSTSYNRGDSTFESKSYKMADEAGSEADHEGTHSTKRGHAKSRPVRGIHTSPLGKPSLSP
Method: Peptide A linked microspheres, and Peptide B linked microspheres were prepared as described in Example 2, and were mixed for 30 minutes with buffer or thrombin as shown in the table below:
The microspheres were then recovered by centrifuging at 1800 g for 10 minutes. The microspheres were resuspended in 100 μl Tris to give a final concentration of 5 mg/ml. 10 μl of Hirudin 100 U/ml was added to inhibit residual thrombin.
180 μl Fibrinogen at a concentration 0.1 mg/ml was added to 20 μl of Peptide A or Peptide B linked microspheres and mixed for 1 hr.
Fibrinogen binding was measured as follows. 5 μl microspheres were added to 50 μl HEPES buffer pH […] FITC labelled antibody to human fibrinogen was added and mixed for 20 minutes. The reaction was stopped with addition of 0.2% Formyl saline. Bound fluorescence was measured using a Beckman Coulter XL MCL Flow Cytometer.

Thrombocytopenic blood = experiment: Platelet aggregation in thrombocytopenic blood activated by ADP (impedance aggregometer); assay type: cell-based; conditions: microparticles pre-exposed to thrombin, 6 min
Method: Platelet aggregation in the presence of peptide C modified microparticles was measured using a Multiplatelet impedance aggregometer (Multiplate® Dynabyte medical, Munich).
Peptide C modified microparticles were prepared as described in Example 5 at a stock concentration of 2.5 mg/ml in HBS. The microparticles (0.75 mg) were pre-incubated for 1 h with 1 U/ml human thrombin (Sigma) in HBS (total volume 0.3 ml). To inhibit thrombin activity hirudin (Sigma) was added at a final concentration of 5 U/ml. The reaction was centrifuged at 9300 g for 5 min and the supernatant was discarded. The microparticles were resuspended in HBS to a concentration of 2.5 mg/ml.
Thrombocytopenic blood was prepared from citrated blood as follows:
Platelets were removed by centrifuging whole blood at 163 g for 20 min and discarding the platelet rich upper layer. The upper platelet rich layer was replaced by plasma that was isolated as the supernatant after centrifuging whole blood at 1800 g for 30 min.
To monitor electrical impedance; to each electrode well 0.3 ml of blood was incubated at 37° C. with microparticles (0.15 mg) and saline to give a total volume of 0.6 ml. Aggregation was recorded immediately after the addition of 30 μl of activator adenosine diphosphate solution (0.1 mM). Aggregation was recorded for 6 min; results in FIG. 9 are expressed in arbitrary units of final aggregation.

plasma [2] = experiment: Clot formation in plasma in response to thrombin (turbidimetric, PAP-4); assay type: biochemical
Method: Microparticle clot formation in plasma was determined turbidimetrically using the Platelet Aggregation Profiler® PAP-4 (BioData Corporation, PA) as described above.
(§1) Peptide C modified microparticles were prepared as described in Example 5 at a stock concentration of 2.5 mg/ml in HBS. The baseline optical density was set with plasma, which had been prepared from citrated blood. Plasma samples (205 μl) were pre-warmed to 37° C. for 1 min before the addition of microparticles (25 μl), with the stir bar rate set at 900 rpm. After two minutes 20 uL of human thrombin (Sigma) stock solution was added to the reaction to give a final thrombin concentration of 0.25 U/ml.

Fibrinogen [3] = target: T1, Fibrinogen; experiment: Clot formation in fibrinogen in response to thrombin (turbidity, PAP-4); assay type: biochemical; set-up: purchased SNBTS
Method: Clot formation was determined by a […] in turbidity using the Platelet Aggregation Profiler® PAP-4 (BioData Corporation, PA) as follows; Peptide C linked microparticles were prepared as described in Example 5 at a stock concentration of 2.5 mg/ml in Hepes buffered saline (HBS). The baseline optical density was set with fibrinogen (SNBTS) solution at 3 mg/ml in HBS. Fibrinogen solutions (205 μl) were pre-warmed to 37° C. for 1 min before the addition of microparticles (25 μl), with the stir bar rate set at 900 rpm. After two min 20 μL of human thrombin (Sigma) stock solution was added to give a final concentration of 0.032 U/ml.

plasma [4] = experiment: Clot formation in plasma after microparticles pre-incubated with thrombin (turbidimetric, PAP-4); assay type: biochemical
Method: Clot formation as monitored in plasma with peptide C modified microparticles that had been pre-exposed to thrombin in a buffer. Microparticle clot formation in plasma was determined turbidimetrically using the Platelet Aggregation Profiler® PAP-4 (BioData Corporation, PA) as described above.
as §1, with “HBS. Peptide C modified microparticles were pre-incubated with 0.6 U/ml thrombin for 1 h and then hirudin (10 U/ml) was added to inhibit thrombin activity. The reactions were centrifuged at 9300 g for 5 min then resuspended in HBS at 2.5 mg/ml.” for “HBS.”, “of” for “of human”, “thrombin” for “thrombin (Sigma)”

Fibrinogen [5] = target: T1, Fibrinogen; experiment: Fibrinogen binding to microparticles after incubation with or without thrombin (flow cytometry); set-up: purchased Scottish National Blood Transfusion Service (SNBTS)
Method: (§2) Microparticles were mixed with fibrinogen solution after exposure to thrombin to confirm that fibrinogen-binding sequence is exposed by thrombin.
(§3) Microparticles at 0.7, 5 or 10 mg/ml were incubated with 0-0.64 U/mL thrombin at 37° C. after 2 min the thrombin was inhibited by the addition of hirudin (Sigma) at a final concentration of 10 U/mL. Microparticles were centrifuged at 9300 g for 5 min and resuspended in HBS to give 14 mg/mL. The microparticles were diluted 10-fold in 0.1 mg/mL human fibrinogen (Scottish National Blood Transfusion Service: SNBTS) and incubated at room temperature for 1 h. The amount of fibrinogen bound was determined by flow cytometry with a polyclonal antibody rabbit-anti-human fibrinogen-FITC (Dako Cytomation).

[6] = target: T2, human fibrinogen (Scottish National Blood Transfusion Service: SNBTS) (human, UniProt P02671 20-629; P02675 31-491; P02679 27-437, limits assumed); experiment: flow cytometry with rabbit anti-human fibrinogen-FITC on microparticles
T2 sequence (looked up) 1: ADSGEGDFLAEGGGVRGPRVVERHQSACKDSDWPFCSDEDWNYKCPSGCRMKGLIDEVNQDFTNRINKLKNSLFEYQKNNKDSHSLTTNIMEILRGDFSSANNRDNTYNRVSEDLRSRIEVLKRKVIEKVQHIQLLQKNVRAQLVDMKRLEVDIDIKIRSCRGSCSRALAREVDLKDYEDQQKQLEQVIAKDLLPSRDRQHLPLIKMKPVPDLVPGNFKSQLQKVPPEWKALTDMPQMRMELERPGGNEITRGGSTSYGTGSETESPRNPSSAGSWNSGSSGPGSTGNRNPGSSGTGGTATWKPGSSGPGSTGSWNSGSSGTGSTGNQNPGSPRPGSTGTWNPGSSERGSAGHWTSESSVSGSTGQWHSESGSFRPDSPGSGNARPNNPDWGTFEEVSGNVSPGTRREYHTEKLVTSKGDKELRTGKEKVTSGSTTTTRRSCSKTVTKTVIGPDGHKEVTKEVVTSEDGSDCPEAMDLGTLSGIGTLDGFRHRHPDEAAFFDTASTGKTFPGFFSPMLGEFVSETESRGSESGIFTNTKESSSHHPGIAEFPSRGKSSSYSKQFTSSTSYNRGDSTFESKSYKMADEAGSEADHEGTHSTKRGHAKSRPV
T2 sequence (looked up) 2: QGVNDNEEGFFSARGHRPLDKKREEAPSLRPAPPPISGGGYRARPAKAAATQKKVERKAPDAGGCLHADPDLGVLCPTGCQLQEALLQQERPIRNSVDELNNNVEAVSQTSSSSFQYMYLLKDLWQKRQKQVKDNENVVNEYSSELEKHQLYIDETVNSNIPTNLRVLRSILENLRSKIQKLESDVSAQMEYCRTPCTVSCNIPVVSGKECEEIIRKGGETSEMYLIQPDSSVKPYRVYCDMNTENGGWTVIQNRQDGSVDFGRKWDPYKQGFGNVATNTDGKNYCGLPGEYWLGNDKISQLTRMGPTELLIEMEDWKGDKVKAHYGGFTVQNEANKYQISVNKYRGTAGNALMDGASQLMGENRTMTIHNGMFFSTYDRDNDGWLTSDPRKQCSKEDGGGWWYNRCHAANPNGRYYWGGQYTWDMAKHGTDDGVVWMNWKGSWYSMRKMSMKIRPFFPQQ
T2 sequence (looked up) 3: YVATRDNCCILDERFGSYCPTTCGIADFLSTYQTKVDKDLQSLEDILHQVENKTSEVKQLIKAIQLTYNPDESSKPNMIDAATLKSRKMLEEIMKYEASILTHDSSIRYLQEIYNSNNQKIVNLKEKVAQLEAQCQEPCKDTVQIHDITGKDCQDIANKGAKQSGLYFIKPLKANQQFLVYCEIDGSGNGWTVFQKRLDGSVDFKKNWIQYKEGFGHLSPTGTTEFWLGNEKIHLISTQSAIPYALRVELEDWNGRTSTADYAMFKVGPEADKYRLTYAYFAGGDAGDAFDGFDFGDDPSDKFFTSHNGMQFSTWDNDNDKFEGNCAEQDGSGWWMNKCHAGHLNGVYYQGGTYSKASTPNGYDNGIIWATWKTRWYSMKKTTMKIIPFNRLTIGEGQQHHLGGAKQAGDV
Method: as §2, §3

Molecule: H2N-LVPRGPRPG^6C (H-LVPRGPRPGGGGGGC; also: cross-linked to human albumin microspheres) [Peptide A]
microspheres that bound fibrinogen (Fibrinogen [1]; first incubated with thrombin (0.16 U/ml, 30 minutes), then mixed with fibrinogen): 86%
microspheres that bound fibrinogen (Fibrinogen [1]; not previously incubated with thrombin, fibrinogen 0.1 mg/ml, 1 hr): 6%

B1: Peptide C (H2N-LVPRGPRPG5K-MAL), fibrinogen binding precursor peptide linked to human albumin microparticles, not exposed to thrombin (peptide)
peptide: H-LVPRGPRPGGGGGK(MAL″)
modifications: also: thioether-linked via maleimide to albumin microparticle sulphydryl
notes: Synthetic peptide immobilised on microparticles of human serum albumin; tested as the intact precursor; also called peptide C modified microparticles; microparticles modified with peptide C
binding result [6]: no binding (tested: 0.1 mg/mL human fibrinogen)

Continued, in another order:

fibrinogen binding (in words) (Fibrinogen [1]; absence of thrombin): bound fibrinogen
fibrinogen binding (in words) (Fibrinogen [1]; presence of thrombin): bound fibrinogen
Molecule: H2N-GPRPG^6C (H-GPRPGGGGGGC; also: cross-linked to human albumin microspheres) [Peptide B, reference compound]

amount of fibrinogen bound to microparticles (Fibrinogen [5]; increasing thrombin concentration (0-0.64 U/mL), all three microparticle concentrations): increased
fibrinogen binding (in words) (Fibrinogen [5]; without thrombin, microparticles 0.7, 5 or 10 mg/ml): do not bind fibrinogen
Molecule: H2N-LVPRGPRPG^5K-MAL (H-LVPRGPRPGGGGGK-{MAL}; also: MAL maleimide linked to human albumin microparticles) [peptide C]
electrical impedance (final aggregation) vs TCB without microparticles or blank microparticles (Thrombocytopenic blood): greater electrical impedance
clot formation in plasma vs unmodified control blank microparticles (plasma [2]; thrombin 0.25 U/ml added at the 2 min time point): accelerated clot formation
clot formation in plasma (plasma [2]; without the addition of thrombin): did not form a clot
clot formation in fibrinogen solution (Fibrinogen [3]; absence of thrombin, fibrinogen 3 mg/ml): neither blank nor microparticles modified with peptide C formed a clot
turbidity decrease (clot formation) vs control unmodified microparticles (Fibrinogen [3]; thrombin 0.032 U/ml added at 2 min): decreased more rapidly
clot formation in plasma (plasma [4]; exposed to thrombin both before (0.6 U/ml, 1 h) and during (0.25 U/ml) incubation with plasma): clot formation occurs
clot formation in plasma (plasma [4]; without thrombin exposure, over the 20 min period): did not result in clot formation
